According to article PMC5327651 (Virology, 2016):
Substitutions are numbered along the chain they refer to.

Columns and labels:
cross-linking = molecular target: the molecule itself; test: cross-linking
FRET or BRET = molecular target: the molecule itself; test: FRET or BRET

B1: WT rhTRIM5α CC-L2 peptide (residues 132-296) with an added C-terminal cysteine, fluorescently labelled (domain or fragment, rhesus macaque)
chain: LMEEVAQEYHVKLQTALEMLRQKQQEAEKLEADIREEKASWKIQIDYDKTNVSADFEQLREILDWEESNELQNLEKEEEDILKSLTKSETEMVQQTQYMRELISELEHRLQGSMMDLLQGVDGIIKRIENMTLKKPKTFHKNQRRVFRAPDLKGMLDMFRELTDAC
modifications: Alexa Fluor 488 C5-maleimide or Alexa Fluor 594 C5-maleimide on the added C-terminal cysteine
cross-linking
  stoichiometry N: 2

B2: HKN271-273AAA rhTRIM5α CC-L2 peptide (residues 132-296) with an added C-terminal cysteine, fluorescently labelled (domain or fragment, rhesus macaque)
chain: B1 chain with H140A, K141A, N142A
modifications: Alexa Fluor 488 C5-maleimide or Alexa Fluor 594 C5-maleimide on the added C-terminal cysteine
FRET or BRET
  binding result: binds

B3: RRV275-277AAA rhTRIM5α CC-L2 peptide (residues 132-296) with an added C-terminal cysteine, fluorescently labelled (domain or fragment, rhesus macaque)
chain: B1 chain with R144A, R145A, V146A
modifications: Alexa Fluor 488 C5-maleimide or Alexa Fluor 594 C5-maleimide on the added C-terminal cysteine
FRET or BRET
  binding result: binds
